The results in this text go back to the supplement of paper PMC10567573.

This data set in a line: protein stability index of a GFP-peptide fusion (GPS, HEK-293T) (PSI 1-6); higher = more stable.
The mark [1] stands for this setting: treatment: DMSO, c terminus: a fixed tail appended.
[2] abbreviates: treatment: MLN4924 1 uM, 8 h, c terminus: a fixed tail appended.

± gives the standard deviation.
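Also: 24-mer peptide tiles fused after GFP, lentivirally expressed, FACS-sorted into six equal bins by GFP/DsRed ratio, decoded by Illumina sequencing, PSI is the read-weighted mean bin number.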

As to VTSIHKYMVRRYFNKPSRVPAPEA [MYORG], the protein stability index is 2.42 ± 0.14 under setting [1] and 2.38 ± 0.3 under setting [2].
For VVEEVRRRATSGGKWPQVLFFPEG [LPCAT4], the protein stability index runs as follows: under setting [1], 2.75 ± 0.31; under setting [2], 3.24 ± 0.26.
On the same counts, the results for VVHWVQSIGLRDYAGNLHESGVHG [PPFIA4] are 2.56 ± 0.27 and 1.93 ± 0.36.
On the same counts, the results for VVKLENGEIETIARFGSGPCKTRD [APMAP] are 3.77 ± 0.16 and 3.72 ± 0.31.
As to VVQGPDGRLELKPLLLRLPRICQR [FANCE], the protein stability index reads like this: under setting [1], 2.35 ± 0.33; under setting [2], 2.45 ± 0.15.
On the same counts, the results for VYHSYDLPWFRTLSWYFLLCVNYF [CDS1] are 2.85 ± 0.42 and 2.63 ± 0.51.
On the same counts, the results for VYMFKNGSGDSGDSSEEESHRVVL [LYSMD4] are 3.49 ± 0.32 and 3.33 ± 0.38.
On the same counts, the results for WDRNRRRGGGAAGAGGGGSGAGGG [KLHDC10] are 5.16 ± 0.5 and 5.3 ± 0.2.
Regarding WEEEEDHEKERPEHKSLESLADGG [FANCE], the protein stability index stood at 5.46 ± 0.34 under setting [1] and 5.53 ± 0.19 under setting [2].
In the case of WEPRRDMWVRFRAFEAARDLDACA [ZSWIM9], the protein stability index is 2.79 ± 0.34 under setting [1] and 2.72 ± 0.2 under setting [2].
As for WFLVPISSVICNDITAYLFGFFFG [CDS1], the protein stability index stood at 2.75 ± 0.036 under setting [1] and 3.16 ± 1 under setting [2].
On the same counts, the results for WLISEEEKTQKNQCWKSLFIDTYS [FBXO3] are 2.16 ± 0.3 and 2.45 ± 0.33.
On the same counts, the results for WQLFLAHNIPLETIIPILQHLKYK [INTS3] are 2.83 ± 0.44 and 2.63 ± 0.59.
On the same counts, the results for WRNIILMSLLHLGALYGITLIPTC [SCD] are 2.83 ± 0.19 and 2.9 ± 0.42.
In turn, WSPSPPATPEQGLSAFYLSYFDML [SPDEF] yielded a protein stability index under setting [1] of 2.14 ± 0.45 and a protein stability index under setting [2] of 2.33 ± 0.48.
With WTTEQQQRFHEICSNLVKTRRRAV [ARL6IP1], the protein stability index is 2.8 ± 0.2 under setting [1] and 3.07 ± 0.41 under setting [2].
On to WYRPMYKAFRSDSSFNFFVFFFIF [SCAMP3], for which the protein stability index under setting [1] came to 2.94 ± 0.34 and the protein stability index under setting [2] was determined as 2.86 ± 0.54.
On the same counts, the results for YAVLAAEPELQVGIDIMKTSFPGR [AASDHPPT] are 2.61 ± 0.28 and 2.73 ± 0.4.
As for YCKTSDGRVVPESQCQMETKPLAI [ADAMTSL2], the protein stability index was found to be 3.94 ± 0.33 under setting [1] and 4.32 ± 0.11 under setting [2].
YCLTCEVPTCSMCKVFGIHKACEV [TRIM63]: the protein stability index by setting is: under setting [1], 2.69 ± 0.45; under setting [2], 2.8 ± 0.33.
On the same counts, the results for YEAQDGRGPDNALLEATGGAAGRS [KCTD10] are 5.37 ± 0.34 and 5.41 ± 0.25.
On the same counts, the results for YENCLQALADVEVKYIVERTMLDF [NLN] are 2.08 ± 0.28 and 2.22 ± 0.51.
On the same counts, the results for YFGSFATVGLLWFAHHSLFLHVRK [TMEM175] are 3.17 ± 0.56 and 3.15 ± 0.42.
As for YHRETEGEEQAQLLHVSSPNLASD [KCNA1], the protein stability index is 5.16 ± 0.3 under setting [1] and 5.21 ± 0.27 under setting [2].
Consider YINFRHLYKQRRRRYGQKKKKIH [HACD3], for which the protein stability index (treatment: DMSO, c terminus: native) is 2.12 ± 0.29 and the protein stability index (treatment: MLN4924 1 uM, 8 h, c terminus: native) came to 2.74 ± 0.55.
Regarding YKCLECGKAFSQNSGLINHQRIHT [ZNF24], the protein stability index came out at 4.95 ± 0.23 under setting [1] and 4.57 ± 0.26 under setting [2].
On the same counts, the results for YLLDYPNNLLSAPPPDVTQLTPPS [ANKRD17] are 3.23 ± 0.14 and 3.44 ± 0.2.
Turning to YLNGASVLPHKSIGESVPEPRIIM [GMPPB], the protein stability index reads like this: under setting [1], 2.79 ± 0.35; under setting [2], 2.84 ± 0.34.
The sequence YNKPTDDIVLMAQALEKIFLQKVA [BRD3] registered a protein stability index under setting [1] of 2.45 ± 0.54 and a protein stability index under setting [2] of 2.06 ± 0.44.
For the sequence YPEDSSWAAKAPGASSREEPPEEP [SPDEF], the protein stability index turned out to be 4.21 ± 0.43 under setting [1] and 4.64 ± 0.51 under setting [2].
On the same counts, the results for YPIIFVYYLRKGKKINSNQLENEQ [SPANXN3] are 2.37 ± 0.33 and 2.14 ± 0.26.
For the sequence YQILTLEKDQEQVVMNLDSRLLIF [GMCL1], the protein stability index is, setting by setting: under setting [1], 2.77 ± 0.67; under setting [2], 2.66 ± 0.7.
On the same counts, the results for YQLCHALRFLHENQLTHTDLKPEN [CLK3] are 4.62 ± 0.23 and 4.76 ± 0.37.
On the same counts, the results for YQRNLPRPGQAPIGNPPVGPIGGM [ZNF207] are 2.87 ± 0.32 and 3.31 ± 0.41.
As for YQSGGRIRRPVNVPIDIFSEEIRF [KCNA3], the protein stability index by setting is: under setting [1], 2.49 ± 0.43; under setting [2], 3.11 ± 0.37.
On the same counts, the results for YQVAALQGDLASLRAELQGHHAEK [TNFSF13B] are 3.71 ± 0.14 and 3.88 ± 0.099.
On the same counts, the results for YRHLLEGEDCKLPPQPCATACKPV [KRT36] are 3.97 ± 0.2 and 3.93 ± 0.11.
On the same counts, the results for YRMRNVHPKPKLVRVLESLLVSLV [CLCN6] are 2.44 ± 0.75 and 2.18 ± 0.35.
Regarding YSKPGLSMRLLESKKGLSFFAFEH [TCF25], the protein stability index turned out to be 2.12 ± 0.33 under setting [1] and 2.08 ± 0.38 under setting [2].
On the same counts, the results for YTAQQDQELDIKKNERLWLLDDSK [NCK2] are 4.37 ± 0.27 and 4.65 ± 0.15.
On the same counts, the results for YTFGSNQHGQLGTNTRRGSRAPCK [NEK8] are 4.27 ± 0.52 and 4.22 ± 0.39.
The sequence YTVNFLEAKEGDLHRIEIPFKFHM [CARM1] returned a protein stability index under setting [2] of 3.15 ± 1.1.
YTYRDYGHSSSRDDYPSRGYSDRD [RBMX]: the protein stability index by setting is: under setting [1], 3.94 ± 0.3; under setting [2], 4.02 ± 0.26.
On the same counts, the results for YVRPERLSPISHGNTIALFFRSLL [TCF25] are 2.59 ± 0.4 and 2.71 ± 0.42.
On the same counts, the results for YVYFFCTVPEILVHNIVIFMRTSV [TMEM106C] are 3.13 ± 0.43 and 2.92 ± 0.37.
Take YWDGSGHRRTVKMRKGNTMQQFLQ [FAM50A]: the protein stability index by setting is: under setting [1], 2.74 ± 0.12; under setting [2], 2.72 ± 0.24.
